# In ChEMBL document CHEMBL1146070, “Investigating the role of stereochemistry in the activity of anticancer acylfulvenes: synthesis, reductase-mediated bioactivation, and cellular toxicity” (J Med Chem, 2006):
# B1: Prostaglandin reductase 1 (Rattus norvegicus), P97584 (protein)
# chain: MVQAKTWTLKKHFEGFPTDSNFELRTTELPPLNNGEVLLEALFLSVDPYMRVAAKKLKEGDSMMGEQVARVVESKNSAFPTGTIVVALLGWTSHSISDGNGLRKLPAEWPDKLPLSLALGTVGMPGLTAYFGLLDICGLKGGETVLVNAAAGAVGSVVGQIAKLKGCKVVGTAGSDEKVAYLKKLGFDVAFNYKTVKSLEEALRTASPDGYDCYFDNVGGEFSNTVILQMKTFGRIAICGAISQYNRTGPCPPGPSPEVIIYQQLRMEGFIVTRWQGEVRQKALTDLMNWVSEGKIRYHEYITEGFEKMPAAFMGMLKGDNLGKTIVKA
# What was measured:
# [1] = substrate: CC1=C(CO)C2=C(C)C3(CC3)[C@@](C)(O)C(=O)C2=C1; assay: (§1) Affinity towards rat NADP-dependent AOR, leukotriene B4 12-hydroxydehydrogenase
# [2] = substrate: CC1=C(CO)C2=C(C)C3(CC3)[C@](C)(O)C(=O)C2=C1; assay: as §1
# [3] = substrate: CC1=CC2=C(C)C3(CC3)[C@@](C)(O)C(=O)C2=C1; assay: as §1
# [4] = substrate: CC1=CC2=C(C)C3(CC3)[C@](C)(O)C(=O)C2=C1; assay: as §1
protein,measurement,setting,value
B1,Km,[1],213 µM
same,Km,[2],243 µM
same,Km,[3],538 µM
same,Km,[4],465 µM
